Patent publication US8088892B2, “Inhibitors of proteins from the Rho-GEF family” (Centre National de la Recherche Scientifique (C.N.R.S.), priority 2002, dated 2012)
“Also recorded” adds a separate entry of the source. Like-named read-outs stand apart in the source and are kept apart here.

Legend:
TrioGEFD2 [1] = biological target: T1, TrioGEFD2 (Homo sapiens, UniProt O75962); test: In vitro guanine nucleotide exchange (GEF) assay on RhoA; assay type: biochemical; design: using recombinant GST-TrioGEFD2 (a.a. 1848-2298), TrioDH2 (a.a. 1848-2096); made in house; key to in vitro GEF assay (inhibition): +++^2 and +^2 represent respectively a full and a partial (see FIG. 3) inhibitory effect; +++^2 and +^2 represent respectively a full and a partial (see FIG. 3) inhibitory effect; −−^2 represents a lack of inhibitory effect; settings: for Inhibition of TrioGEFD2 exchange activity on RhoA in vitro: 20-fold molar excess (8 μM) inhibitor, 0.4 μM GST-GEFD2, 0.3 μM [3H]GDP-RhoA, 15 min; for IC50: 0.4 μM GST-GEFD2, 0.3 μM RhoA, increasing amounts of GST-TRIAPα, read-out: apparent half-inhibitory concentration (inhibition of TrioGEFD2)
Method: For that purpose, aptamers, TrioGEFD2 and RhoA are expressed as GST-fusion proteins. RhoA is loaded with ^3H-GDP, and the release of GDP is followed after addition of GEFD2 in presence or in absence of the selected aptamers (as described in Debant et al., 1996).
A 20-fold molar excess (8 μM) of GST-aptamers TRIAPα, TRIAPβ (another TrioGEFD2 binding aptamer), TRIAPγ (another TrioGEFD2 binding aptamer) or the empty thioredoxine (Trx) were pre-incubated with 0.4 μM GST-GEFD2 (left side of FIG. 2A) or 0.4 μM GST-DH2 (right side of FIG. 2A), as indicated, before adding 0.3 μM of [^3H]GDP loaded GST-RhoA. The exchange activity was monitored by the decrease of [^3H]GDP bound-RhoA after 15 min (see Materials and Methods). The amount of [^3H]GDP bound-RhoA incubated without GEF (first bar on the left) was defined as 100% The values and errors bars were calculated from at least three independent experiments.
0.4 μM GST-GEFD2 were incubated with increasing amounts of GST-TRIAPα (grey bars) or GST (black bars), and the exchange assay was then performed on 0.3 μM RhoA, as described in A.
An in vitro guanine nucleotide exchange (GEF) assay was used to test whether the TrioGEFD2-binding aptamers could inhibit the catalytic activity of TrioGEFD2 towards RhoA. For this purpose, the aptamers TRIAPα, TRIAPβ and TRIAPγ (including the Trx gene) were excised from pEG202 as EcoRI/NotI fragments and cloned into pGEX4T1 EcoRI/NotI. The aptamers were then expressed and purified from bacteria as GST fusion proteins, using standard procedures (Smith and Johnson, 1988). GTPase-GST fusion proteins were prepared, loaded with [^3H]GDP and the guanine nucleotide release assays were performed as described (Debant et al., 1996), using recombinant GST-TrioGEFD2 (a.a. 1848-2298), TrioDH2 (a.a. 1848-2096). For each point, 0.3 μM GTPase was mixed with or without 0.4 μM GEF in presence of non-labeled GTP, and the reaction mix was filtered after 0 min and 15 mm reaction at 25° C. The catalytic activity of TrioGEFD2 was thus measured by the decrease of the GTPase-associated radioactivity. The results are expressed as the ratio “exchange after 15 min over exchange after 0 min” (% bound [^3H]GDP-RhoA). To measure the effect of the aptamers on the exchange activity, a 20-fold molar excess of GST-TRIAPs was pre-incubated with GEFD2 (or GEFD1) for 30 min on ice before the exchange assay was carried out. For each experiment, data were obtained in triplicate.

TrioGEFD2 [2] = biological target: T1, TrioGEFD2; test: Yeast Exchange Assay (YEA), RhoA activation; assay type: cell-based; settings: yeast strain TAT7, reporter gene
Text: The wild type GTPase is fused to the LexA DNA binding domain (Matchmaker GAL4 two-hybrid, Clontech Laboratories, Inc., USA) and the effector to the […] (Matchmaker GAL4 two-hybrid, Clontech, Inc., USA). Under these conditions, no binding occurs in the TAT7 strain (De Toledo et al., 2000). Upon addition of a third plasmid expressing the GEF, the GTPase gets activated and binds to its effector, thus leading to the transactivation of the reporter gene LacZ.
TrioGEFD2, a control GEF (GEF720) or an empty vector (−GEF: corresponds to a vector without GEF) were introduced into the YEA system and analysed for their ability to transactivate the reporter gene in absence (left panel) or in the presence (right panel) of TRIPα.
In order to better characterise the effect of TRIAPα on the Trio full length RhoGEF activity, the yeast exchange assay (YEA) was used, which is a quick and quantitative test derived from the classical two-hybrid system allowing to measure Rho-GEF activity and specificity (De Toledo et al., 2000). This functional assay is based on the fact that the GTPase binds to its effector only if it is activated by a RhoGEF. Briefly, yeasts are transformed with the GTPase fused to the LexA binding domain (LexA), and its effector to the GAL-4 Activating Domain (GAD), and with the adequate Rho-GEF partner in the yeast strain TAT7 (FIG. 7). […]

| IC50 (TrioGEFD2 [1]; listed as OST-TRIAPα) [µM] | IC50 (TrioGEFD2 [1]) [µM] | in vitro GEF assay (inhibition) (TrioGEFD2 [1]; RhoGEF TrioDH2PH2) | Molecule | Inhibition of TrioGEFD2 exchange activity on RhoA in vitro (TrioGEFD2 [1]) | Inhibition of TrioGEFD2-mediated RhoA activation in the YEA system (TrioGEFD2 [2]) |
| --- | --- | --- | --- | --- | --- |
|  |  |  | AREGADGAICGYNLATLVMLGPSERVFCPLCEPCSSDIYELM [TRIPα, 42-amino acid peptide corresponding to the variable region of TRIAPα] | inhibits TrioGEFD2 activity to a similar level than TRIAPα; also recorded: as potent as TRIAPα | inhibits TrioGEFD2-mediated RhoA activation |
| ~4 | 4 | +++^2 | TRIAPα: aptamer of 154 amino acids: variable region of 42 amino acids inserted into the thioredoxin protein; tested as GST fusion (protein) MSDKIIHLTDDSFDTDVLKADGAILVDFWAEWCGPAREGADGAICGYNLATLVMLGPSERVFCPLCEPCSSDIYELMGPCKMIAPILDEIADEYQGKLTVAKLNIDQNPGTAPKYGIRGIPTLLLFKNGEVASATKVGALSKGQLKEFLDANLA | potent inhibitor of TrioGEFD2 activity; also recorded: inhibits | blocked specifically TrioGEFD2-mediated activation of RhoA |
